This data set deals with the molecule itself. Description: SEC + other: mass spectrometry; HiLoad 16/60 Superdex 75, 20 mM sodium phosphate pH 6.5, 150 mM NaCl, with or without 2 mM DTT; dimer fraction decreased with DTT; fractions identified by mass spectrometry; monomer to covalent dimer.

B1: His-SUMO-peptide fusion protein (SUMO_SAPKELCKAVSVSM) (domain or fragment, human)
chain: SAPKELCKAVSVSM
notes: three amino acids Ser-Ala-Pro linker inserted between the SUMO tag and the peptide; The peptide is the C-terminus of the chain (stop codon after it); The dimer is covalent; Printed mass 15,819 (printed as kDa); source: E. coli Rosetta (DE3), purified (Ni-NTA agarose, SEC); not shown: His, N-terminal, kept; SUMO, N-terminal, kept
For the protein B1, the “stoichiometry N” value came out at 2.

For the origin of these results see article PMC5485733, “An Amyloidogenic Sequence at the N-Terminus of the Androgen Receptor Impacts Polyglutamine Aggregation” (Biomolecules, 2017).
